Experiments:
C. difficile toxin A = C. difficile toxin A (Clostridium difficile, UniProt P16154 1-2710); assay: cell-based or functional assay
[1] = target: T1, genetically modified and chemically inactivated C. difficile toxoid A (Clostridium difficile, UniProt P16154 2-2710); assay: ITC
T1 construct: also called TxdA; the toxoid

B1: hCDIFA-39 (antibody, V domains shown)
VH: QVQLQESGPGLVKPSETLSLTCTLSGGSISSDNYYWGWVRQPPGKGLEWIGSIYYSGSTYYNPSLKSRVFISVDMSKNQFSLKLSSVTAADTAVYYCARHTQGLGILRYFDWWTRPFDYWGQGTLVTVSS
VL: DIQMTQSPSSLSASVGDRVTITCRASQNINTYLSWYRQKPGKAPELLIYAASNLQSGVPSRFSGSGSGTDFTLTIHSLQPEDFATYYCQQSYTTLTFGGGTKVEIKR
EC50 TcdA [RLU], toxin neutralization assay (TNA) on IMR90 cells (C. difficile toxin A): 400 RLU

B2: hCDIFA-34 (antibody, V domains shown)
VH: QVQLVESGGDLIQPGESLRLSCVASGFTVGSHYMTWVRQAPGKGLEWVSTIYSGGTTKYADSVKGRFTISRDNSKNTLFLQMNSLRTEDTAVYFCARGSAFSSSWWLVDFWGQGTLVTVSS
VL: SYELTQPPSVSVAPGKTARITCEDNYVGGNNVHWYQQKPGQAPVLVVSDDNARPSGIPERVSGSKSGNTATLIINRVEVGDEADFYCQVWDSSRDRVLFGGGTKLTVLG
EC50 TcdA [RLU], toxin neutralization assay (TNA) on IMR90 cells (C. difficile toxin A): 247 RLU

B3: hCDIFA-36 (antibody, V domains shown)
VH: QVQLVQSGGGLVQPGRSLRLSCAASGFAFDDYALHWVRQVPGKGLEWVSGISWNSDSIAYADSVKGRFTISRDNAKNSLYLQMNGLRAEDTALYYCAKDRTIASAGIPDEFQHWGQGTLVTVSS
VL: DIVMTQSPATLSVSPGERATLSCRASQSVSYKVAWYQQKPGQAPRLLIYGASTRDTGIPARFSGSGSGTDFTLTISSLQSEDSAVYYCQQYSNWPTTFGQGTKVEIKR
EC50 TcdA [RLU], toxin neutralization assay (TNA) on IMR90 cells (C. difficile toxin A): 426000 RLU

B4: hCDIFA-13 (antibody, V domains shown)
VH: QVQLVQSGAEVKKPGASVTVSCRTSGYTFTNDYVHWVRQAPGQGLEWVGLINPSGGNTVYAQSFQGRVTMTRDTSTSTVYMELSSLRSEDTAVYYCARVVHDYGKFDPWGQGTPVTVSS
VL: SYELTQPASVSGSPRQSITISCTGTSSDVGNYNLVSWYQQYPGKAPRLIIFEVRQRPSGVSNRFSGSKSGNTASLTISGLQAADEADYYCCSYAGRSIWVFGGGTKLTVLG
EC50 TcdA [RLU], toxin neutralization assay (TNA) on IMR90 cells (C. difficile toxin A): 26300 RLU

B5: hCDIFA-16 (antibody, V domains shown)
VH: QVQLQESGPGLVKPSETLSLTCTVSGDSISDYYWSWIRQPPGRGLEWIGYIYYSGSTNYNPSLKSRLTISVDTSKNQFSLNLSSVTAADTAVYYCARSMGHYDFWNTYFPCFDPWGQGTLVTVSS
VL: EIVMTQSPGTLSLSPGERATLSCRASQSVSSGYLAWYQQKPGQAPRLLIYGASSRATGIPDRFRGSGSGTDFTLTISRLEPEDFAVYYCQQYGSSPLTFGGGTKLEIKR
EC50 TcdA [RLU], toxin neutralization assay (TNA) on IMR90 cells (C. difficile toxin A): 298 RLU

B6: hCDIFA-2 (antibody, V domains shown)
VH: QVQLVESGGGLVQPGGSLRLSCAASGFTFSSYAMSWVRQAPGKGPEWVSNIIGSGGSTYFTDSVKGRFTISRDNSKNTVYLQMNSLRAEDTAVYYCAKEGCRGYDSGNYFAPKMFCLWGQGTLVTVSS
VL: NFMLTQPASVSGSPGQSITISCTGTSSDIGAYNYVSWYQQHPGTAPKLMIYEVSHRPSGVSNRFSGSKSGDTASLTISGLQAEDEADYYCSSYTTSITYVFGTGTKLTVLG
EC50 TcdA [RLU], toxin neutralization assay (TNA) on IMR90 cells (C. difficile toxin A): ~38 RLU

B7: hCDIFA-22 (antibody, V domains shown)
VH: QVQLVQSGGGLVQPGGSLRLSCSASGFTFSSYAMHWVRQAPGKGLEYVSAISSNGGSTYYADSVKGRFTISRDNSKNTLYLQMSSLRAEDTAVYYCVRAAAGNWFDPWGQGTLVTVSS
VL: AIRMTQSPSSVSASVGDRVTITCRASQGISSWLAWYQQKPGKAPKLLIYAASSLQSGVPSRFSGSGSGTDFTLTISSLQPEDFATYYCQQANSFPLTFGGGTKVDIKR
EC50 TcdA [RLU], toxin neutralization assay (TNA) on IMR90 cells (C. difficile toxin A): ~16 RLU

B8: hCDIFA-41 (antibody, V domains shown)
VH: QVQLQESGPGLVKPSQTLSLTCTVSGDSISSNQYYWTWIRQPAGKGLEWIGQIESAYFTNYNPSLKGRVTISGDASKNVLSLTLTSVTAADTALYWCAREAGGGLGYCTGGRCQFSGYYYYGLDVWGQGTTVTVSS
VL: QSALTQPPSVSAAPGQTVTISCSGSHSNIGNNYVSWYQQLPGTAPRRLIYDTDKRPSGIPDRFSGSKSGTSATLVITGLRAGDEADYYCGTWDGSLSAGVFGGGTKLTVLG
EC50 TcdA [RLU], toxin neutralization assay (TNA) on IMR90 cells (C. difficile toxin A): 673 RLU

B9: hCDIFA-48 (antibody, V domains shown)
VH: QVQLVQSGAEVKKPGASVKVSCKASGYTFTTYAMHWVRQAPGHRLEWMGWINPVNGNSKHSQNFQGRVTITRDTSASTVYMELSSLRSEDTAVYYCARDTSSGVILANNFDYWGQGTLVTVSS
VL: DIVMTQSPATLSLSPGERATLSCRASQSVDSYLTWYQQKPGQAPRLLIYDSSNRATGIPARFSGSGSGTDFTLTISSLEPEDFAVYYCHQRSNWPNTFGQGTKVEIKR
DH [1]: -7.2 kcal/mol | Kd [1]: 87 nM | Stoichiometry [1]: 0.77

B10: hCDIFA-3 (antibody, V domains shown)
VH: EVQLVESGGGVVQPGRSLRLSCAASGFTFSSYAMHWVRQAPGKGLEWVAVISKDGDNKYYTDPLKGRFTISRDNSKNTLYLQMISLRGEDTAVYYCARDLNIWSGYYLRTINYYMDVWGKGTTVTVSS
VL: DIVMTQSPSFLSASVGDRVTITCRASQGIRNDLGWYQQKPGKAPKLLIYAASTLQSGVPSRFSGSGSGTEFTLTISSLQPEDFATYYCQQPGSHPPFGGGAKLEIKR
EC50 TcdA [RLU], toxin neutralization assay (TNA) on IMR90 cells (C. difficile toxin A): 199000 RLU

B11: hCDIFA-26 (antibody, V domains shown)
VH: EVQLLESGAEVKKPGESLRISCNCSGYSFTSYWIGWVRQMPGEGLEWMGLIQPGGDSYPRYSPSFQGQVTISADKSISTAYLQWRSLKASDTAMYYCARRGFDHWGQGTLVTVSS
VL: NFMLTQPPSASGAPGQRVTISCSGSSSNIGSNTVNWYQQLPGTAPKLLIYSNIQRPSGVPDRFSGSKSGTSASLAISGLQSDDEADYYCSAWDDSLNGYVFGTGTKVTVLG
DH [1]: -9.1 kcal/mol | Kd [1]: 8 nM | Stoichiometry [1]: 1.98

B12: hCDIFA-20 (antibody, V domains shown)
VH: EVQLVQSGAEVRIPGASVKVSCKASGFTFNDYYIHWVRQAPGQGLEWMGWINAHNGVTSYAQNFQDRVTMTRDTSITTAYMDLSRLRSDDTAVYYCARDCSTSSCFDHWGQGSLVTVSS
VL: SYELTQPPSLSVAPGKTAKITCGGNNIGSKGVHWYQQRPGQAPVLVIYYNADRPSGIPERFSGSNSGNTATLTISRVEAGDEADYFCQVWDGDSAHRVFGGGTKLTVLG
EC50 TcdA [RLU], toxin neutralization assay (TNA) on IMR90 cells (C. difficile toxin A): 3200 RLU

B13: hCDIFA-29 (antibody, V domains shown)
VH: EVQLLESGAEVKKPGASIRVSCKASGHSFTDSFTDYYFHWVRQAPGQGLEWMGMINPSVGSTNYAQKFQGRVTLTRDTSTHTVYMELSSLRSEDTAVYFCARDPWFCSRGTSCYYFGLWGQGTLVTVSS
VL: DIQLTQSPSSLSASVGDSVTITCRASQSISTYLNWYQQKPGKAPKLLIYDASSLLSGVPSRFSGGGSGTDFTLTISSLQPEDFATYYCQQSDISPPVFGRGTKVEIKR
DH [1]: -15.6 kcal/mol | Kd [1]: 74 nM | Stoichiometry [1]: 9.2

B14: hCDIFA-23 (antibody, V domains shown)
VH: QVQLVQSGGGVVQPGRSLRLSCAASGFTFSQYSIHWVRQAPGKGLEWVAVMSYDGRNKYYADSVKGRFTISGDNSRNTLYVQMNSLRAEDTAIYYCARDLIKAAMVPAFDIWGQGTMVTVSS
VL: TALTQPRSVSGSPGQSVTISCTGTNSDVADYNYVSWYQHHPGKAPKLMIYDVTKRPSGVPDRFSGSKSGNTASLTISGLQAEDEADYYCCSYAARYTFGGGTKLTVLG
EC50 TcdA [RLU], toxin neutralization assay (TNA) on IMR90 cells (C. difficile toxin A): 136 RLU

B15: hCDIFA-18 (antibody, V domains shown)
VH: QVQLVQSGAEVKKPGASVKVSCKASGYTFTSYAMHWVRQAPGQRLEWMGWINAGNGNTKYSQEFQGRVTITRDTSASTAYMELSSLRSEDMAVYYCARAHLPGYCSSTSCYIMYVWGKGTTVTVSS
VL: not shown
EC50 TcdA [RLU], toxin neutralization assay (TNA) on IMR90 cells (C. difficile toxin A): 1330 RLU

B16: hCDIFA-30 (antibody, V domains shown)
VH: EVQLVESGAEVKRPGASVKVSCRTSAYAFTNYFMHWVRQAPGQGLEWVAVINLSGGNTNYAQSFQGRVNMTRDTSTSTVYMELSSLRSEDTAVYFCAIGGIWFGEYPNWFDPWGQGTLVTVSS
VL: NFMLTQPPSVSAAPGRKVTVSCSGSSSNIGNNYVSWYQQFPGTAPKLLIYDNNKRHSGIPARFSGSKSGTSATLGITGLQTGDEADYYCATWDSSLKYVVFGGGTKLTVLG
EC50 TcdA [RLU], toxin neutralization assay (TNA) on IMR90 cells (C. difficile toxin A): 1480 RLU

B17: hCDIFA-12 (antibody, V domains shown)
VH: QVQLVQSGAEVKKPGASVKVSCKASGYTFSDSYMHWVRQAPGQGLEWMGRINPNSGGTNYAQKFQGRVTMTRDTSIKTVYMELSRLRSDDGAIYYCARGMGRTTTGLFDLWGQGTLVTVSS
VL: DIVMTQSPATLSLSPGERATLSCKANESVGSYLVWYQQKFGQAPRLLIYDASNRATGIPARFSGSGSGTDFTLTISSLEPEDFAVYYCQQRSNWPPTFGGGTKVDIKR
EC50 TcdA [RLU], toxin neutralization assay (TNA) on IMR90 cells (C. difficile toxin A): ~115 RLU

B18: hCDIFA-14 (antibody, V domains shown)
VH: EVQLVQSGAEVKKPGSSVKVSCKASGGTFRSYAISWVRQAPGQGLEWMGGFIPIPGIRNYAQKFQGRLTISADESTSTGYMELSSLTSEDTAVYYCARGLGRVSHYFYYMDVWGKGTTVTVSS
VL: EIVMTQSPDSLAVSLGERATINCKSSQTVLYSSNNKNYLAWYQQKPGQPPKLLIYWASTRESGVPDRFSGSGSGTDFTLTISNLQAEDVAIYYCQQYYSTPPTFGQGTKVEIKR
EC50 TcdA [RLU], toxin neutralization assay (TNA) on IMR90 cells (C. difficile toxin A): 19800 RLU

B19: hCDIFA-38 (antibody, V domains shown)
VH: QVQLVESGPALVKPTQTLTLTCTFSGFSLSSIGMCVSWIRQPPGKALEWLARIDWDDSKYYSPSLQARLAISKDTSKNQVVLTMTNVDPMDAGTYYCARTSATLTGPSRVFDYWGQGSLVTVSS
VL: DVVMTQSPATLSVSPGERATLSCRASQSVRFNLAWYQQKPGQAPRLLISGASTRATGIPARFSGSGSGTEFTLTISSLQSEDFAVYYCQQYNNWPPLTFGGGTKVEIKR
EC50 TcdA [RLU], toxin neutralization assay (TNA) on IMR90 cells (C. difficile toxin A): 10500 RLU

B20: hCDIFA-28 (antibody, V domains shown)
VH: QVQLVQSGAQVKKPGSSVKVSCKASGYAFISYGITWVRQAPGQGLEWMGWISAYNGDTNYAQKFQGRVTMTTDTSTNTAYMELRSLRSDDTAVYYCARALTRVAVALPHPYWGQGTLVTVSS
VL: not shown
EC50 TcdA [RLU], toxin neutralization assay (TNA) on IMR90 cells (C. difficile toxin A): 25800 RLU

B21: hCDIFA-33 (antibody, V domains shown)
VH: QVQLVQSGGGLVQPGGSLRLSCVASGFTFSSYAMTWVRQAPGMGLEWVSTISLSGSTIYYADSVKGRFTISRDNPKNTLYLQMNSLRAEDTAVYYCAEGQGAFDFWGQGTMVTVSS
VL: NFMLTQPPSASGTPGQRVTISCSGSTSNIGGNTVNWYQQLPGTAPKLLIYSNIQRPSGVPDRFSGSKSGTSASLAIRGLRSEDEADYYCSTWDDSRKGVVFGGGTKLTVLG
DH [1]: -3 kcal/mol | Kd [1]: 31 nM | Stoichiometry [1]: 0.83

From US20230218735A1 (Pfizer, published 2023)
